Measurements as given in US20210246195A1 (CZ BIOHUB SF, published 2021).
Read-outs that look alike come from different tables or passages of the source.

Key:
[1] = molecular target: T1, Ara h 3 (purified natural peanut allergen) (Arachis hypogaea); experiment: BLI, antibody on anti-human IgG Fc sensors, Ara h 3 as analyte, top 128 nM
T1 construct: mature; bought natural protein; also called natural Ara h 3; NA-AH3-1

[2] = molecular target: T2, Ara h 1 (purified natural peanut allergen) (Arachis hypogaea, UniProt P43238 26-626); experiment: indirect ELISA, OD heat map
T2 construct: mature; bought natural protein; also called natural Ara h 1; NA-AH1-1
T2 sequence (looked up): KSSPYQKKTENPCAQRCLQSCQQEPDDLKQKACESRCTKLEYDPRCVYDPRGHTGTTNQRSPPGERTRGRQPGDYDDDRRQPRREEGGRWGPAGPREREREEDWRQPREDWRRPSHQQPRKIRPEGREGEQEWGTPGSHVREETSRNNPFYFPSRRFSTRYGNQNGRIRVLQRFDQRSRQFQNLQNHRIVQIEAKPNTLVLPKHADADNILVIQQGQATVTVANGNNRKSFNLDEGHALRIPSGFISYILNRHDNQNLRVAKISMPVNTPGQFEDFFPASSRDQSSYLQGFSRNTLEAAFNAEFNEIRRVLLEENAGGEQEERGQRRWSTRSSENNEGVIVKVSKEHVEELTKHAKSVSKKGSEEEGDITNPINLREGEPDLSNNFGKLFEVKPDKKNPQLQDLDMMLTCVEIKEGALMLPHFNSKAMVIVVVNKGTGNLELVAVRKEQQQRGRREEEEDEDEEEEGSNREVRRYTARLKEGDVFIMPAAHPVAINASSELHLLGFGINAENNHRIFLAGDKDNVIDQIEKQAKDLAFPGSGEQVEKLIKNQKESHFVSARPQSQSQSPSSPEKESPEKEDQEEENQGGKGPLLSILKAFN

BSA [3] = molecular target: T3, BSA (UniProt P02769 25-607); experiment: indirect ELISA, OD heat map
T3 construct: also called bovine serum albumin; immobilized BSA

[4] = molecular target: T1, Ara h 3 (purified natural peanut …); experiment: BLI, scatter plot of KDs; the diamond lies on the axis line labelled >10^-7
BSA [5] = molecular target: T3, BSA; experiment: indirect ELISA, OD heat map; remark: listed apart in the source
[6] = molecular target: T4, purified recombinant allergen Aspergillus fumigatus 1 (rAsp f 1) (Aspergillus fumigatus, UniProt P67875 28-176); experiment: indirect ELISA (FIG. 19)
T4 sequence: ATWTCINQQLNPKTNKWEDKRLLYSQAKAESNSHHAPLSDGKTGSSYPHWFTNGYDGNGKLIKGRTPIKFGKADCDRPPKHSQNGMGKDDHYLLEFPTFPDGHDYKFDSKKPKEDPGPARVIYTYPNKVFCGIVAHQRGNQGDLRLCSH

[7] = molecular target: T2, Ara h 1 (purified natural peanut …); experiment: indirect ELISA
[8] = molecular target: T1, Ara h 3 (purified natural peanut …); experiment: BLI, antibody on anti-human IgG Fc sensors, Ara h 3 as analyte, top 512 nM
[9] = molecular target: T1, Ara h 3 (purified natural peanut …); experiment: BLI, antibody on anti-human IgG Fc sensors, Ara h 3 as analyte, top 16 nM
[10] = molecular target: T1, Ara h 3 (purified natural peanut …); experiment: BLI, antibody on anti-human IgG Fc sensors, Ara h 3 as analyte, top 64 nM

T3 sequence (P02769 25-607 limits assumed): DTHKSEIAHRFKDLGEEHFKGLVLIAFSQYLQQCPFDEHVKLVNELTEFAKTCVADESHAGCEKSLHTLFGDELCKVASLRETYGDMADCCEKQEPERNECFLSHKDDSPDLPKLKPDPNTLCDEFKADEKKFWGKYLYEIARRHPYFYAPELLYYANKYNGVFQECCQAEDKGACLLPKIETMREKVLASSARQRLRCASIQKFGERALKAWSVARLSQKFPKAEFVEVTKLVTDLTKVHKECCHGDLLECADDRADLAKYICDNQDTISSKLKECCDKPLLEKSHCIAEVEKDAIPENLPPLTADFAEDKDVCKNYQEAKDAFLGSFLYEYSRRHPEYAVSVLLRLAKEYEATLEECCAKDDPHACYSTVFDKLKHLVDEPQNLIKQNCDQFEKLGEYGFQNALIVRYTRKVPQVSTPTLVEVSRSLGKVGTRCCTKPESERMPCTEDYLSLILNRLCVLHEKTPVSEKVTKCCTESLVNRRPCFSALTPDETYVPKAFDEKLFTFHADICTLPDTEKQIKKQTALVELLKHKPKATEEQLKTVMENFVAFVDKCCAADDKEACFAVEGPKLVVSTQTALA

Binder | binding result [2] | binding result (BSA [3]) | binding result [7] | Kd [8] | other results
PA13P1H08 variant R-R (antibody, V domains shown, human IgG1, kappa; also called both chains reverted to the inferred naive rearrangement) VH: QVQLVESGGGVVQPGRSLRLSCAASGFTFSSYGMHWVRQAPGKGLEWVAVISYDGSNKYYADSVKGRFTISRDNSKNTLYLQMNSLRAEDTAVYYCAKVLDYSNYYYYYGMDVWGQGTTVTVSS VL: not shown | no binding (tested: 2 ng/µL) | no binding (tested: 2 ng/µL) |  |  | Kd [1]: > 100 nM; Kd [4]: > 100 nM
1003320107_C5 (antibody, V domains shown, also called Clone 1003320107_C5) VH: QVQLQESGLGLVKPSGTLSLTCAVSGGPMNSSYWWSWVRQSPGGGLEWIGQISHYTNTKYNPSFKNRVSISIDKSKNEFSLRLTYVTGADTGVYYCVGERDWKDPNWFDPWGQGRLVTVSS VL: QSVLTQPPSVSGAPGQRVTISCTGSNSNIGAGQDVHWYQHFPGTAPKLVIYGNSNRPSGVPDRFSGSKSGTSASLAISGLQADDEADYYCQSYDKSLSSSLFGGGTKLTVL |  |  |  |  | binding result (BSA [5]): no binding (tested: 2 ng/µL); binding result [6]: binds
PA15P1D05 (antibody, human IgG1, V domains shown, human IgG1; also called CF3 IgE PB antibody) VH: QVHLVESGGGVVQPGRSLGLSCVASGFTFNYYAIHWVRQAPGKGLEWVAVVSFDGNIIYYADSVKGRFNISRDNSKNTVNLQMNSLRPDDTAVYYCVRDGEYCSGGNCYWGDFDHWGQGSLVTVSP VL: EIVLTQSPATLSLSPGERATLSCRASQSISSEYLTWFQQKPGQAPRLLIYGAFNRATGIPDRFSGSGSGTDFTLTISSLEPEDFAVYYCQQYANWWTFGQGTKVEIK |  |  | no binding | 2 nM | 
PA15P1D12 (antibody, human IgG1, V domains shown, human IgG1; also called CF3 IgG4 PB antibody) VH: QVHLVESGGGVVQPGRSLGLSCAASGFTFNYYAIHWVRQAPGKGLEWVAVVSFDGNIIYYADSVKGRFNISRDNSKNTVNLQMNSLRADDTAVYYCVRDGEYCSGGNCYWGDFDYWGQGTLVTVSP VL: EIVLTQSPGTLSLSPGERATLSCRASQSISSEYLTWFQQKPGQAPRLLIYGAFNRATGIPDRFSGSGSGTDFTLTISSLEPEDFAVYYCQQYANWWTFGQGTKVEIK |  |  | no binding | 1.1 nM | 
PA13P1H08 (antibody, human IgG1, V domains shown, human IgG1, kappa; also called Clone PA13P1H08; N-N) VH: QVQLVNSGGGVVQPGRSLRLSCVASGFTFSTFGIHWVRQAPGKGLEWVAVISNDGEKSESADSVKGRFTPSRDNSKNTVYLQMNNLRVEDTAVYYCAKVLDYSRYSYYYGMDVWGQGTTVIVSS VL: EIVLTQSPGTLSLSPGGRGTLSCRTSQTINNAHLAWYQHKPGQAPRLLIYGSSERATGVPDRFSGSGSGSDFTLTISSLEAEDFAVYYCQHYGRSPPYTFGPGTKLDIK |  | no binding (tested: 2 ng/µL) |  |  | Kd [9]: 0.3 nM
PA13P1H08 variant N-R (antibody, V domains shown, human IgG1, kappa; also called native heavy chain, reverted light chain) VH: QVQLVNSGGGVVQPGRSLRLSCVASGFTFSTFGIHWVRQAPGKGLEWVAVISNDGEKSESADSVKGRFTPSRDNSKNTVYLQMNNLRVEDTAVYYCAKVLDYSRYSYYYGMDVWGQGTTVIVSS VL: not shown | no binding (tested: 2 ng/µL) | no binding (tested: 2 ng/µL) |  |  | Kd [10]: 7.4 nM
